One data set addresses N-protein WT (NWT) (SARS-CoV-2, UniProt P0DTC9 1-419). The experiment in a line: SV-AUC; […], pH 7.4; […], pH 7.4; […], pH 7.50; temperature not given. Particulars: protein: recombinant; tags: N-terminal 6xHis-TEV, cleaved; chain copies: 2; single strand.
The target of another data set is CTD (SARS-CoV-2, UniProt P0DTC9 247-364). The data set is described as above. Particulars: protein: recombinant; tags: N-terminal 6xHis-TEV, cleaved; chain copies: 2; single strand.

B1: T10 (ssDNA)
DNA: TTTTTTTTTT
In the case of B1, the binding result in the data set with N-protein WT (NWT) was “binds”.

B2: T40 (ssDNA)
DNA: TTTTTTTTTTTTTTTTTTTTTTTTTTTTTTTTTTTTTTTT
Turning to B2, the binding result with N-protein WT (NWT) and in the data set with CTD was “binds” throughout.

(Values after article doi:10.1101/2023.11.22.568361.)
